Target: RGS2^5–16 peptide (RGS2 degron, Met^5–Met^16)
Assay: SPR; Biacore X100; RGS2^5–16 peptide amine-coupled to a CM5 chip (2498 RU), blank reference cell; FBXO44^FBA as analyte, 0.29 to 75 μM, contact time 60 s, regeneration 50 mM NaOH; RU at equilibrium, nonlinear fit of saturation binding; SEC/SPR buffer 20 mM Tris–HCl pH 7.2, 200 mM NaCl

Kd: 2.1 µM
B1: FLAG-tagged FBXO44 FBA domain (FBXO44^FBA) (domain or fragment)
chain: FYFLRSLHRNLLHNPCAEEGFEFWSLDVNGGDEWKVEDLSRDQRKEFPNDQVKKYFVTSYYTCLKSQVVDLKAEGYWEELMDTTRPDIEVKDWFAARPDCGSKYQLCVQLLSSAHAPLGTFQPDPATIQQKSDAKWREVSHTFSNYPPGVRYIWFQHGGVDTHYWAGWYGPRVTNSSITIGP

Source: article PMC12554172, “Systematic analysis of the RGS2 degron reveals characteristics of substrate recognition by the F-box protein FBXO44” (The Journal of Biological Chemistry, 2025)
